Laboratory results reported in the DeepSol protein solubility set.

Assay: soluble on expression in E. coli; label from the status in PepcDB or PDB records

Row | Sequence | soluble on expression in E. coli
1 | MGSDKIHHHHHHMSIAIRRDEEIALSCHGVSKSFVISGEQNIWRMFCALPVRGEVFAALRDVSLEVPRGKIVGILGRNGAGKSTLLRVLGGVYQPTSGTVDVHGQVCGLFEMGGFGNRELSGREYATRYLTVMGAPRKDRGDLLADIAEFSELGADFDRKILTYSAGMAARLYFSTATAMRHEIYLIDELLSVGDEHFQAKCWIRMRNLLLNGASGILVTHDWVSTLKLCQQSHILERGSIVASGRTDAAVVKYLDLPVPDGALARFCDSDRATWHAVAGEDAVFEFDIESEEDIPLVFTYSVELMRIGIGWDIMLLGQRPIGSGNGRRRVQLKVPALPLAPGEYSLTVGLIKEKTRAEDEAVICDARGWTTGNGYVLEVSGTLEQGTTILPMEISGWIDD | not soluble
2 | MGSDKIHHHHHHMANSRKHLIYLVYGRQTYHQEALFSIASAFAHLRDGAAHGLTVRVYTDDPSPYAGLPVQVREVTAEELVAWCQPHGYHFRAKHVALRDALEEADQALLIDTDTFFHSSPLRLFDRIQPGSLLCNAIGARYGEHRNFPLYRDLSPYLFERGWADDEMHQLNSGVIGLPREEAKILDRSLELMDELYPIANGAYTLEEFVLAVAAHKRLELVGCTDLIHHYWSRKQLFRAKIQAWLCKHGSSLLSAAALDDTLKVTDRLPRPPRAKRLLYKLGTLPLPAPMRQFSIELLYGCHEYSNEFDRACGPVWWEKAATNAIERYPQEPIAEQIEDWLNHSLLRNLLGSRANEIRQHLRQRDLL | not soluble
3 | MDNIQQEKLKNLIRSLEKSASPQEAEYLMGEILVPLLAEDGYSIQAVGDQRDFGVDFIARKDKHEEQFPEEIAIEYKHYRKAAVGLDVVHRVLGAAMSMGLSRAMVITNSRFTYAAREAIRRSSPVGVELLDIDALRSWIGRIEEVPSIDVVQVNIIRREFSRRLIELILKNPRYLDEIEWREMERLLAEVFEGLGFSVRLTPGSKDGGKDIILTCQVATKNHTYYVEVKHWRSGQRVGSGAITEFLNVIINEQIDGGLYLSTYGYCSNSIESLTEIQRKSLRFGTENKVVTLCQSYVKAMSGIWAPDKLLPEVLYDNTL | not soluble
4 | MGSSHHHHHHSSGLVPRGSHMEAPAAVVTGAAKRIGRAIAVKLHQTGYRVVIHYHNSAEAAVSLADELNKERSNTAVVCQADLTNSNVLPASCEEIINSCFRAFGRCDVLVNNASAFYPTPLVQGDHEDNSNGKTVETQVAELIGTNAIAPFLLTMSFAQRQKGTNPNCTSSNLSIVNLCDAMVDQPCMAFSLYNMGKHALVGLTQSAALELAPYGIRVNGVAPGVSLLPVAMGEEEKDKWRRKVPLGRREASAEQIADAVIFLVSGSAQYITGSIIKVDGGLSLVHA | soluble
5 | LLTLSDIGLSVHRYSNRLDVFTQALEGGKALGDVSVDVYDDNGKVVAQGKTDSDGHARLPLPAKAAVVLAHKDEQTSMLRLNSSALDLAEFDISGPQAHPLQFFIFGPRDLYRPGETVLLNGLLRDSDGKNVKPQPITVEVRRPDDQVSRKFVWEADSSGFYQYQLQLAEEAPTGRWQLVFDLGDGKPQLYEFKVEDFLPERLALELKGSDAPVAPADNPEFDITGRYLYGAPASGNTLTGQVYVRPLREAVAKLPGYQFGSITE | not soluble
6 | MPKRIVYNISSDFQLKSLLGEGAYGVVCSATHKPTGEIVAIKKIEPFDKPLFALRTLREIKILKHFKHENIITIFNIQRPDSFENFNEVYIIQELMQTDLHRVISTQMLSDDHIQYFIYQTLRAVKVLHGSNVIHRDLKPSNLLINSNCDLKVCDFGLARIIDESAADNSEPTGQQSGMVEFVATRWYRAPEVMLTSAKYSRAMDVWSCGCILAELFLRRPIFPGRDYRHQLLLIFGIIGTPHSDNDLRCIESPRAREYIKSLPMYPAAPLEKMFPRVNPKGIDLLQRMLVFDPAKRITAKEALEHPYLQTYHDPNDEPEGEPIPPSFFEFDHYKEALTTKDLKKLIWNEIFS | soluble
7 | AIAKLTDSVLRSFRVAKVFRENSDKINCFDFSSNGETVISSSDDDSIVLYDCQEGKPKRTLYSKKYGVDLIRYTHAANTVVYSSNKIDDTIRYLSLHDNKYIRYFPGHNKRVVALSMSPVDDTFISGSLDKTIRLWDLRSPNCQGLMHLQGKPVCSFDPEGLIFAAGVNSEMVKLYDLRSFDKGPFATFKLQYERTCEWTGLKFSNDGKLILVSTNGGTLRVLDAFKGAVLHSFGGYNNSKGVILEAPFTPDSQFIMIGSEDGKIHVWNAESGMKVALLDGKHTGPVTCLQFNPKFMTFASACSNMAFWLPTIDD | soluble
8 | VRRVPLFENMDERLLDAICERLKPCLFTEKSYLVREGDPVNEMLFIIRGRLESVTTDGGRSGFYNRSLLKEGDFCGDELLTWALDPKSGSNLPSSTRTVKALTEVEAFALIADELKFVASQFRR | soluble
9 | MENNTILHNYQDWLEHHKMPAGKKKTLVAAIELFSQQGYNGTSTAQIAEKAGISQATIFKYFKTKSDLLSEIMQPMIPELKRDFFPKLQTYTKLEEVVHFIVQDRFQFLTQNADLIKILIQEALVNVKLRKTLLTNIQLTISKDFMAYWQTLKQINPQINPNLSGIEVIRTNVGLLFAYFTQRFILNIPTPSEQKDLLLIEKQILTLLILDTH | not soluble
10 | MAHHHHHHMMPRSENQKEEEEWELHPLFLSKIPNKKDIDKNPALSALITLINEEEEKEVFSYEPRRKNLKKKITEKGQIIYKKDRRNLYEPYQQNKNDKINYFEKKNFGGNADISKEEEVLDVEMDEEGTTVTTAEQGGDHSSQNVSNNQEATDQTSIGEVLVCLSMMNLKQ | soluble
11 | MSLDRTLRGRVEGKVVLITGATSGIGKATARKLAEAGAKVLTIARDEHKIAETQAEFAELGLTLQVYQGDLADLSQGEAITRQIVAEHGGVDILINNAGRSIRRAIEDSFDRFHDLERTMQLNYFGTLKVIMGLLPTMIEKKKGHIINISSIGVLTNAPRFSAYVASKSALDAWVRTAASEFADKGVNFSIINMPLVKTPMVAPTKVYEQVPMMTPEEAADLVCDTIINKHVRLATRLGVFGQVIHALAPRVAQVIMNTSEGHHHHHH | not soluble
12 | MSLKIRQARLEDLDRIVELEFENFSVEEAIPPSVFEAHLREIQTSFLVAEKEGRIMGYIEGPVGLHRHLQDQSFTEEIKDYSHEPGGYISVTCLSIAKEAQGLGLGQKLLTALKEVALEDERDGINLTCHDYLIAYYEKHGFVNEGQSQSTFAGETWYDMVWEMKKEGHHHHHH | soluble
13 | MGSDKIHHHHHHAEAGVFSDVPTSHWSYPAIKDLAGKNIISGYGNGKFGFGDVATREQVAALIYRALLPNKQGGTFSNDGARYVLQDGSTLNNPYRDIRSGSTLFPEEVLTLTKLGVFNGDGNGGFRPKDSVSRAEMAQIIKNAFQVSAKQKHTFNDVPDGFWAEGAISAVQSNGIASGTGDGKFEPAKTVTREQYAQFLYNALQYKKPAVAVQDTGDAALLAAFKDEVQKRINAYETNITLPYKTTNSNTKEVMNTLFNAYKEVASKNEYTNNNRSNVSYGLSGSPGNYTFTLKITYRETKEQTEYVMKQAKAIVSSITQVGMDDHEKVKAIHDYVVKHVSYDTSYKAYTAYEALVNRSAVCQGYALLTYQLLKEAGIENHFVVGTGDGQPHAWNLVKIENKWYHLDTTFDDPVPDEQGRVTYSYFNLSDEQIARNHEWNRGDYPQATTNYYSTLTNKIAAGGTKTSAYQQILKDTKLNYLGNEYIANNYNEFKNKMQQRYNEKSPKIEILYKQSMDGALQDVKKAIGEIGYPQGANRVSYKAEPYNAKEGYSLVTITFM | not soluble
14 | MGSDKIHHHHHHMYKLNQNETPLFNALMEYVNRDTIPFHVPGHKKGNGIDKEFKNFIGENPFKIDVTVFKLVDSLHHPTGPIKKAQELAADAYGSKAAFYSVNGTSGAIQGMILSVVGDGDKIIVPRNVHKSVTAGIILSGAVPVYMHPEVDRRVGIAHGVSPETVGETLKNNPDAKAVLLINPTYYGVSTDIKKIADIVHSYDIPLIVDEAHGPHLSFNDRLPVSALKAGADMCAQSTHKIIGALTQMSLLHVNSDRIDMNRVQQIMNLLQTTSPSYILMASMDCARRQIALHGKELLDGTIDLCNYARREINKIPGFYCFGEEVLGKPGSYAFDPTKLTITCTDLGITGYDLDMLLANDYHIQVELSDLYNVLAVGSFGDTKENIDALINALRQISKSISSTVKNKKNSFIDIPDVPERILSPRDAFNGAKESMLIKDSVGKTSGEFLMAYPPGIPVLCPGEIITQEIIDYVSDLKAAGLYVQGTEDPDVNYIKVLK | not soluble
15 | MPLIRNYDYYDLLNVAPSTSAHRPTVMVTSSRSYMEPQKSRIYYGKNEWRGGNTTIHDPTEFEETTMDKNANEIAGDDKRKKKRWRDLLFPNSRHSSRKDKENSNVSVATRSLSSVSFRSEKPSRRRESGSLSRHRYIPPPPLPMPPRRIMTSTSMGYSDDAMTSSSSHTTTDYDDIVPVPTPSYVIYPAASIAQASRRQQQGSAKNRIFRSPTYHHDAFVNSHEWTLSRSISEMKLGIVGTSQSGKTALVHRYLTGTYTPDESPEGGRFKKEVVIEGQSHLLLIRDEGQQHLDVQFCQWVDAVVFVFNVCSIQSYDSIQALAHEMSKYRNISDLPLILVGTKDHISEKRARVITEDEGRQLAAQMKRCSYFETSSTYGTNVERVFKEACCKIIQLRVRSQVGAAAAASSQARTPTPTHSESGGRKDYQDPSRYISSNSFVMPSNMRPSFPSNSTRRNTVHHRGEHPQQQQYQQQPPSSSRTASERSMSAMLGTPYGNRMPAGVSPSASQKSVHSIANGCYSRSSAALLDSDTPAVNSYLIDSMSSAGFPLSQSGANQVSASTSHLPTPSSTPNTQRKNRRISNIFRQKDHQEEKSKMIESLNLGIGRAIPIKQGNLYKKSSKSALNREWKKKYVCLYSDGRLTYHTNLKEYMDKTAHGKEMDLKLATIRITGRLHPLHSHRVASSVDPMNGGGGGGTPTLKSYEPRRSDVGANSGDGTSGGGSDDAIKENQRQHFSPPAMPQTVAGKKKRESRKIGTNSKHNDEEDECFEVINNCLMRWEFCAGSLEERDEWIQAIGGEIEKSLGKEVANAKTNNRAVANRPDIAALRSIPGNGRCADCGNPSSEWASINLGIIICIECSGIHRNLGSHISKVRGLELDQWPVEHLAVMQAIGNDKANEMWEFGLLNGERKPTPESSREEKERFIDRKYVQKAFLKPIASGEPVTSQLISAVLARDVMSLNVLLANGMSVEEINTTTKDGRTVLHLAASIGSVELAQLLIWHNADAQILDNNGRSCLFYARSNGFREVFDMLVTAGLSPDYGLPQEINDFSQMPEFFAMGSTSNRDYSTSGDEMYGSRRISMGPPPQVPARRYLPQQPELDETSVI | not soluble
16 | QTSGFSVTSGPMDVDVVTSIPFAMVDEINESSPAAEGGLQLGDQVLKFGNVEGGDNLLQRLAAEAQSNQGQAVSVQVMRQ | soluble
17 | MGSDKIHHHHHHMKKLDLDVLAMVVAVAESGSFAQGAQAVHRSPSAVSMQIKALEDALGKPLFIRDTRNVTATDDGRMLAEYGRRMLAMRDEAWASVVRPEIRGRVTIGVPDDYISSLLPQVLGKFAAMHPRVEVRVIGQPSSALVPMLKDNTVDLACLTRIKGVTGELIRMEPLVWVGSPKRNVWEERPLPVAFFTHGGSMARDHAVKALNRRKIPYRMSYESPSHLGLLSMVEAGLAVAPLARCCIPDHLVQLSESHGLPSLGELEVVLARSAKSARPPCDYLAEQILDEWRT | not soluble
18 | MDIPQDSYDLVVVGGGTSGVFAAISAARRGLRVALVEASGMLGGTLTQVTLGGICGAWTGTAHTQVVHGLFDEFVHAMRKAQACDGLYSYGHVTALPYEPVKVRYLLDQLLPPNVTAFFHSRLFAVDMEGERIARVHLAGVEGPFSLAARAYVDATGNASLVGLCATPLRRGENGTVQAASSMFRVIGADVDPRVRDVRTEIRLAIEKHNASGQAEAFKRSAVAVYVHPDQRLLHFNATRVYFESTADDALAAALDMSRVETEARKESFRLVELLKREVDGFANIEIVDLGSSVGVRDSRNIVNDHPLTEAMVRDGDKPANSVAYSAWPIEFHGSNTQTHWEPLEGDRYYGIPYESCLPQGIQNALVIGRAISSTPLAQASCRVTAPCIQMGESAGIAAHELVASSSRTAFSELASMKFILEHHHHHH | soluble
